The numbers were not newly measured in article PMC2866048, which cites them from elsewhere.

Usually Kd stands for a measure of binding affinity in units of concentration.

For the data set, the target named is F-actin (Oryctolagus cuniculus) (UniProt P68135).

Regarding drebrin (from UniProt Q16643), the Kd is 120 nM.
